Test [1] addresses Recombinant cynomolgus monkey PAR-2 (cynomolgus monkey). Briefly: SPR (Biacore), antibody captured on Protein A chip, recombinant PAR-2 injected. On the technique in general: Surface plasmon resonance follows binding to a sensor surface in real time, without labels.
Test [2] deals with Cynomolgus monkey PAR-2 on cells (cynomolgus monkey). Briefly: cell-based or functional assay.
Test [3] has the same target. As to the kind of experiment: cell-based or functional assay. The source holds these as a separate data set.

The source of these data is patent US20240150457A1.

For orientation: Kd means the constant that tells how readily two partners part at equilibrium.

B1: P24E1102 (antibody, human IgG4 S228P, kappa, V domains shown)
VH: QVQLVQSGAEVKKPGSSVKVSCKASGFSLSSYAISWVRQAPGQGLEWMGVIWGNQNVYYAQKFQGRVTITADESTSTAYMELSSLRSEDTAVYYCARWKGYKDYPFDYWGQGTLVTVSS
VL: EIVLTQSPATLSLSPGERATLSCRASQNVYKWLDWYQQKPGQAPRLLIYNANTRATGIPARFSGSGSGRDFTLTISSLEPEDFAVYYCQQHHSGWTFGGGTKVEIKR
Take B1: the Kd in test [1] stood at 4.45 nM. In test [2], the IC50 mean, calcium flux at SLIGKV EC80 (Nomad line) was 3.98 nM and the IC50 mean, β-arrestin at SLIGKV EC80 (Nomad line) came out at 15.2 nM.
For SLIGKV, in test [3], the SLIGKV EC80 mean, calcium flux came out at 39000 nM and the SLIGKV EC80 mean, β-arrestin was found to be 107000 nM.
